Measurements reported in patent publication US20050037969A1 (ARBOR VITA, published 2005).
Ends that are not written are not given here. * marks the point of attachment. Biotin = O=C1N[C@H]2[C@H](CS[C@H]2CCCCC(=O)*)N1

T1: GST-LIM protein PDZ domain fusion protein (Human, UniProt Q96HC4 2-85)
T1 construct: also called Human LIM protein; not shown: glutathione S-transferase encoded by vector pGEX-3X (Pharmacia)
T1 sequence: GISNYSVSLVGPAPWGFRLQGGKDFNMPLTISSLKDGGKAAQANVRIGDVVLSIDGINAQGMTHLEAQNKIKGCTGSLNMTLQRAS

T2: GST-prIL16 fusion protein (PDZ domains 1-2) (Homo sapiens (Human), UniProt Q14005 1111-1324)
T2 construct: also called putative interleukin 16 precursor; not shown: glutathione S-transferase encoded by vector pGEX-3X (Pharmacia)
T2 sequence: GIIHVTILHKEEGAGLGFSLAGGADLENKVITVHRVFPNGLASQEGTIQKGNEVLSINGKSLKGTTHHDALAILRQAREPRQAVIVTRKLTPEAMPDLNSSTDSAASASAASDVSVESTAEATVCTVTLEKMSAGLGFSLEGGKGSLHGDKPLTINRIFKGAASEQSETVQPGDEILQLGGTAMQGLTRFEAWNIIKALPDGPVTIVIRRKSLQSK

T3: GST-cytohesin binding protein PDZ domain fusion protein (Homo sapiens (Human), UniProt O60759 74-165)
T3 construct: also called CBP; not shown: glutathione S-transferase encoded by vector pGEX-3X (Pharmacia)
T3 sequence: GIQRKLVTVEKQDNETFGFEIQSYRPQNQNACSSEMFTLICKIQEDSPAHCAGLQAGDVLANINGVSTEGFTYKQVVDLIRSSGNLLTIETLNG

T4: GST-AF6 PDZ domain fusion protein (Homo sapiens (Human), UniProt P55196 1001-1093)
T4 construct: also called af-6 protein; not shown: glutathione S-transferase encoded by vector pGEX-3X (Pharmacia)
T4 sequence: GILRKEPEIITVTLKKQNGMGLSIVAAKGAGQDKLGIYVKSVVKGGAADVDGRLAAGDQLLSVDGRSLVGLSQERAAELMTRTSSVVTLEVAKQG

T5: GST-DLG5 (p-dlg) PDZ domain fusion protein (Human, UniProt Q8TDM6 1343-1583)
T5 construct: also called Human discs large protein p-dlg; not shown: glutathione S-transferase encoded by vector pGEX-3X (Pharmacia)
T5 sequence: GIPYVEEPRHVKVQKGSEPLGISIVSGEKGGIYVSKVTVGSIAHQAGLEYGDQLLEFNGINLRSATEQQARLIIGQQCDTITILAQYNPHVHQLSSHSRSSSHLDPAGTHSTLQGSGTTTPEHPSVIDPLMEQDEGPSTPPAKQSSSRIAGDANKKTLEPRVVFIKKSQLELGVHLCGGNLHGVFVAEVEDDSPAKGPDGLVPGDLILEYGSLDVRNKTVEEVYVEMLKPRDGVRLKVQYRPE

T6: GST-DVL1 PDZ domain fusion protein (human, UniProt O14640 247-339)
T6 construct: also called human dishevelled segment polarity protein homolog; not shown: glutathione S-transferase encoded by vector pGEX-3X (Pharmacia)
T6 sequence: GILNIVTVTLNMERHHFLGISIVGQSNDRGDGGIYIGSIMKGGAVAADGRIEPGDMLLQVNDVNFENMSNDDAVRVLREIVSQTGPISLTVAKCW

T7: GST-KIAA0303 PDZ domain fusion protein (Homo sapiens (Human), UniProt O15021 1138-1228)
T7 construct: also called K303; not shown: glutathione S-transferase encoded by vector pGEX-3X (Pharmacia)
T7 sequence: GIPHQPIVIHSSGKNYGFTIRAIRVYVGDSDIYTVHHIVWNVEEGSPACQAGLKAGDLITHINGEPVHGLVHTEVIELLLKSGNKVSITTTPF

T8: TAX-IP33 PDZ-GST fusion protein (Homo sapiens (Human), UniProt O14910 103-193)
T8 construct: Order of GST and PDZ part and limits not seen in the excerpts
T8 sequence: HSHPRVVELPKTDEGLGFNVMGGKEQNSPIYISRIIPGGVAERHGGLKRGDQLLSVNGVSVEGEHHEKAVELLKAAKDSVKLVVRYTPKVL

T9: MINT3 PDZ-GST fusion protein
T9 construct: Order of GST and PDZ part and limits not seen in the excerpts
T9 chain: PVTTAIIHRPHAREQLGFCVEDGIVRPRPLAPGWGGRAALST

T10: K858 PDZ-GST fusion protein (Homo sapiens (Human), UniProt Q8WWI1 1038-1131)
T10 construct: Order of GST and PDZ part and limits not seen in the excerpts
T10 sequence: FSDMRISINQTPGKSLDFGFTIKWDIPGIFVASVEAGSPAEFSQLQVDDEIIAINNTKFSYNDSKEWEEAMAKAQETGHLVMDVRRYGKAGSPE

T11: SP short PDZ-GST fusion protein (Homo sapiens (Human), UniProt O43464 350-435)
T11 construct: The label SP short is not explained in the excerpts
T11 sequence: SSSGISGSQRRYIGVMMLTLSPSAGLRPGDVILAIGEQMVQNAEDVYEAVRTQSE

T12: GEF PDZ-GST fusion protein (Homo sapiens (Human), UniProt Q8TEU7 293-400)
T12 construct: The label GEF is not explained in the excerpts
T12 sequence: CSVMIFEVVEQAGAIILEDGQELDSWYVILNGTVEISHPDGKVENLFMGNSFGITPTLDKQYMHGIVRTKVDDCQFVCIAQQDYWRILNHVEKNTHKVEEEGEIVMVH

B1: CD114 (G-CSFR) C-terminal peptide AA27L (peptide)
peptide: Biotin-LNFPLLQGIRVHGMEALGSF
notes: Only the last four residues are seen in the excerpts
B2: CD62E C-terminal peptide AA48L (peptide)
peptide: Biotin-SSSQSLESDGSYQKPSYIL
notes: as for B1
B3: FasL C-terminal peptide AA23L-M, biotinylated (peptide)
peptide: Biotin-SSKSKSSEESQTFFGLYKL
modifications: not fully specified
notes: also called FasLigand; Fas ligand
B4: CC CKR-3 C-terminal peptide AA43L (peptide)
peptide: Biotin-LERTSSVSPSTAEPELSIVF
notes: as for B1
B5: CD5 C-terminal peptide AA49L (peptide)
peptide: Biotin-SMQPDNSSDSDYDLHGAQRL
notes: as for B1
B6: CDW125 (IL5R) C-terminal peptide AA28L, biotinylated (peptide)
peptide: Biotin-EVICYIEKPGVETLEDSVF
B7: Clasp-2 C-terminal peptide AA2L, biotinylated (peptide)
peptide: Biotin-ISGTPTSTMVHGMTSSSSVV
B8: CD34 C-terminal peptide AA7L, biotinylated (peptide)
peptide: Biotin-QATSENGHSARQHVVADTEL

Biological target: T1, GST-LIM protein PDZ domain fusion …
Experiment: A/G assays

Does B1 bind?
Result: no binding

Does B2 bind?
Result: no binding

Does B3 bind?
Result: no binding

Does B4 bind?
Result: no binding

Does B5 bind?
Result: no binding

Does B6 bind?
Result: no binding

Does B7 bind?
Result: no binding

Does B8 bind?
Result: no binding

Biological target: T2, GST-prIL16 fusion protein (PDZ domains …)
Experiment: A/G assays

Does B1 bind?
Result: no binding

Does B2 bind?
Result: no binding

Does B3 bind?
Result: no binding

Does B4 bind?
Result: no binding

Does B5 bind?
Result: no binding

Does B6 bind?
Result: no binding

Does B7 bind?
Result: no binding

Does B8 bind?
Result: no binding

Biological target: T3, GST-cytohesin binding protein PDZ …
Experiment: A/G assays

Does B1 bind?
Result: no binding

Does B2 bind?
Result: no binding

Does B3 bind?
Result: no binding

Does B4 bind?
Result: no binding

Does B5 bind?
Result: no binding

Does B6 bind?
Result: no binding

Does B7 bind?
Result: no binding

Does B8 bind?
Result: no binding

Biological target: T4, GST-AF6 PDZ domain fusion protein
Experiment: A/G assays

Does B1 bind?
Result: no binding

Does B2 bind?
Result: no binding

Does B3 bind?
Result: no binding

Does B4 bind?
Result: no binding

Does B5 bind?
Result: no binding

Does B6 bind?
Result: no binding

Does B7 bind?
Result: no binding

Does B8 bind?
Result: no binding

Biological target: T5, GST-DLG5 (p-dlg) PDZ domain fusion …
Experiment: A/G assays

Does B1 bind?
Result: no binding

Does B2 bind?
Result: no binding

Does B3 bind?
Result: no binding

Does B4 bind?
Result: no binding

Does B5 bind?
Result: no binding

Does B6 bind?
Result: no binding

Does B7 bind?
Result: no binding

Does B8 bind?
Result: no binding

Biological target: T13, GST-TIAM1 PDZ domain fusion protein (Homo sapiens (Human), UniProt Q13009 845-931)
T13 construct: also called TLAM1; T-lymphoma invasion and metastasis inducing protein 1; not shown: glutathione S-transferase encoded by vector pGEX-3X (Pharmacia)
T13 sequence (Q13009 other isoform, or with tags, fused parts or gaps): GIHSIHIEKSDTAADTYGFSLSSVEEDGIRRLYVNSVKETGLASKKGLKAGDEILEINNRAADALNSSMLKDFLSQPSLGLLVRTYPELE
Experiment: A/G assays

Does B1 bind?
Result: no binding

Does B2 bind?
Result: no binding

Does B3 bind?
Result: no binding

Does B4 bind?
Result: no binding

Does B5 bind?
Result: no binding

Does B6 bind?
Result: no binding

Does B7 bind?
Result: no binding

Does B8 bind?
Result: no binding

Biological target: T6, GST-DVL1 PDZ domain fusion protein
Experiment: A/G assays

Does B1 bind?
Result: no binding

Does B2 bind?
Result: no binding

Does B3 bind?
Result: no binding

Does B4 bind?
Result: no binding

Does B5 bind?
Result: no binding

Does B6 bind?
Result: no binding

Does B7 bind?
Result: no binding

Does B8 bind?
Result: no binding

Biological target: T7, GST-KIAA0303 PDZ domain fusion protein
Experiment: A/G assays

Does B1 bind?
Result: no binding

Does B2 bind?
Result: no binding

Does B3 bind?
Result: no binding

Does B4 bind?
Result: no binding

Does B5 bind?
Result: no binding

Does B6 bind?
Result: no binding

Does B7 bind?
Result: no binding

Does B8 bind?
Result: no binding

Biological target: T8, TAX-IP33 PDZ-GST fusion protein
Experiment: A/G assays

Does B1 bind?
Result: no binding

Does B2 bind?
Result: no binding

Does B3 bind?
Result: no binding

Does B4 bind?
Result: no binding

Does B5 bind?
Result: no binding

Does B6 bind?
Result: no binding

Does B7 bind?
Result: no binding

Does B8 bind?
Result: no binding

Biological target: T9, MINT3 PDZ-GST fusion protein
Experiment: A/G assays

Does B1 bind?
Result: no binding

Does B2 bind?
Result: no binding

Does B3 bind?
Result: no binding

Does B4 bind?
Result: no binding

Does B5 bind?
Result: no binding

Does B6 bind?
Result: no binding

Does B7 bind?
Result: no binding

Does B8 bind?
Result: no binding

Biological target: T14, PICK1 PDZ-GST fusion protein (Bos taurus (Bovine), UniProt Q2T9M1 17-105)
T14 construct: Order of GST and PDZ part and limits not seen in the excerpts
T14 sequence (Q2T9M1 other isoform, or with tags, fused parts or gaps limits assumed): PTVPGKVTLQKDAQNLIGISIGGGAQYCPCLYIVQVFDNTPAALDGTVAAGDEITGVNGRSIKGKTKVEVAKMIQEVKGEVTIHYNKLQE
Experiment: A/G assays

Does B1 bind?
Result: no binding

Does B2 bind?
Result: no binding

Does B3 bind?
Result: no binding

Does B4 bind?
Result: no binding

Does B5 bind?
Result: no binding

Does B6 bind?
Result: no binding

Does B7 bind?
Result: no binding

Does B8 bind?
Result: no binding

Biological target: T15, K316 PDZ-GST fusion protein (Homo sapiens (Human), UniProt Q14CM0 72-159)
T15 construct: Order of GST and PDZ part and limits not seen in the excerpts
T15 sequence (Q14CM0 72-159 limits assumed): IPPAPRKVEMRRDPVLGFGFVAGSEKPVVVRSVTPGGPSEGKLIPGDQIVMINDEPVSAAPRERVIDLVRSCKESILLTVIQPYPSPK
Experiment: A/G assays

Does B1 bind?
Result: no binding

Does B2 bind?
Result: no binding

Does B3 bind?
Result: no binding

Does B4 bind?
Result: no binding

Does B5 bind?
Result: no binding

Does B6 bind?
Result: no binding

Does B7 bind?
Result: no binding

Does B8 bind?
Result: no binding

Biological target: T10, K858 PDZ-GST fusion protein
Experiment: A/G assays

Does B1 bind?
Result: no binding

Does B2 bind?
Result: no binding

Does B3 bind?
Result: no binding

Does B4 bind?
Result: no binding

Does B5 bind?
Result: no binding

Does B6 bind?
Result: no binding

Does B7 bind?
Result: no binding

Does B8 bind?
Result: no binding

Biological target: T11, SP short PDZ-GST fusion protein
Experiment: A/G assays

Does B1 bind?
Result: no binding

Does B2 bind?
Result: no binding

Does B3 bind?
Result: no binding

Does B4 bind?
Result: no binding

Does B5 bind?
Result: no binding

Does B6 bind?
Result: no binding

Does B7 bind?
Result: no binding

Does B8 bind?
Result: no binding

Biological target: T16, NSP PDZ-GST fusion protein (Homo sapiens (Human), UniProt Q92743 370-466)
T16 construct: The label NSP is not explained in the excerpts
T16 sequence (Q92743 other isoform, or with tags, fused parts or gaps limits assumed): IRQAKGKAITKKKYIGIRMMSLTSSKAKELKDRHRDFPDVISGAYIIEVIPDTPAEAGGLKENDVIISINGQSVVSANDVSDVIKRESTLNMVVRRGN
Experiment: A/G assays

Does B1 bind?
Result: no binding

Does B2 bind?
Result: no binding

Does B3 bind?
Result: no binding

Does B4 bind?
Result: no binding

Does B5 bind?
Result: no binding

Does B6 bind?
Result: no binding

Does B7 bind?
Result: no binding

Does B8 bind?
Result: no binding

Biological target: T12, GEF PDZ-GST fusion protein
Experiment: A/G assays

Does B1 bind?
Result: no binding

Does B2 bind?
Result: no binding

Does B3 bind?
Result: no binding

Does B4 bind?
Result: no binding

Does B5 bind?
Result: no binding

Does B6 bind?
Result: no binding

Does B7 bind?
Result: no binding

Does B8 bind?
Result: no binding
